In PMC9482650, “Quantitative fragmentomics allow affinity mapping of interactomes” (Nature Communications, 2022):

T1: DLG3_3, Q92796
T1 sequence (Q92796 374-475, limits assumed, looked up): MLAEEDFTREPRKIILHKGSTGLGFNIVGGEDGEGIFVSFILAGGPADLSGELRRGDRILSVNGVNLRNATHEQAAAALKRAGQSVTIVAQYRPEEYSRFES

T2: LNX2_2, Q8N448
T2 sequence (Q8N448 334-432, limits assumed, looked up): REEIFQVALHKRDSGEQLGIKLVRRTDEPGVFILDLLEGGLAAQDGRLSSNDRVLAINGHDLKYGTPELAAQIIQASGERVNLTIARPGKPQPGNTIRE

T3: APBA1_2, Q02410
T3 sequence (Q02410 742-832, limits assumed, looked up): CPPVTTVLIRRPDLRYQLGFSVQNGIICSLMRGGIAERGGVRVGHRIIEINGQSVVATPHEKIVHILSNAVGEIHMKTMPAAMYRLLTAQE

T4: GRIP1_5, Q9Y3R0
T4 sequence (Q9Y3R0 568-668, limits assumed, looked up): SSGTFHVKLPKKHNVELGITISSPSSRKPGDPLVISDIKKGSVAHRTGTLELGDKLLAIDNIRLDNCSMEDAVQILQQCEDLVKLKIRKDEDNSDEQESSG

T5: DVL3, Q92997
T5 sequence (Q92997 244-331, limits assumed, looked up): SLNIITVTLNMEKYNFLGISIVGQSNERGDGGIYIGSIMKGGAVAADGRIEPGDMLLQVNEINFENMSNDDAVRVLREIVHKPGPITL

T6: DFNB31_2, Q9P202
T6 sequence (Q9P202 274-371, limits assumed, looked up): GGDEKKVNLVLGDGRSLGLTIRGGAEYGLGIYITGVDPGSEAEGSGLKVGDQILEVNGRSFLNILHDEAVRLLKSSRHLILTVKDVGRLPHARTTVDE

T7: FRMPD1, Q5SYB0
T7 sequence (Q5SYB0 52-145, limits assumed, looked up): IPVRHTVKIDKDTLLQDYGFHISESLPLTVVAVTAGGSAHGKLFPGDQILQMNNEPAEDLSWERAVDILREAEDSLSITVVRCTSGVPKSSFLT

T8: HTRA3, P83110
T8 sequence (P83110 354-453, limits assumed, looked up): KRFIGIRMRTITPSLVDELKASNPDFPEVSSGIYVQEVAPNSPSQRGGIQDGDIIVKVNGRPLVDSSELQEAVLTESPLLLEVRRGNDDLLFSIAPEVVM

T9: APBA1_1, Q02410
T9 sequence (Q02410 651-752, limits assumed, looked up): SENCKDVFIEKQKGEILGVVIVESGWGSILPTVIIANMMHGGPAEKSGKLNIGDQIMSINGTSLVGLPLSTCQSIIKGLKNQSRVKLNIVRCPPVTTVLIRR


Tests used:
Experiment in all cases: holdup assay
Design in all cases: key: below the threshold = too weak to quantify, mostly under pKd 3.1 to 4
Conditions in all cases: plain residues with an end cap or a label only (N-terminal biotin on a linker: ado-ado)
[1] = target: GRIP2_3, Q9C0E4
[2] = target: GOPC, Q9HD26
[3] = target: T1, DLG3_3, Q92796
[4] = target: T2, LNX2_2, Q8N448
[5] = target: T3, APBA1_2, Q02410
[6] = target: TJP1_3, Q07157
[7] = target: Inadl_4, Q8NI35
[8] = target: Inadl_9, Q8NI35
[9] = target: AHNAK1, Q09666
[10] = target: T4, GRIP1_5, Q9Y3R0
[11] = target: T5, DVL3, Q92997
[12] = target: DLG1_2, Q12959
[13] = target: FRMPD3, Q5JV73
[14] = target: SCRIB_1, Q14160
[15] = target: T6, DFNB31_2, Q9P202
[16] = target: T7, FRMPD1, Q5SYB0
[17] = target: PDLIM1, O00151
[18] = target: NOS1, P29475
[19] = target: DLG1_3, Q12959
[20] = target: PDZRN4_1, Q6ZMN7
[21] = target: Inadl_10, Q8NI35
[22] = target: PTPN3, P26045
[23] = target: T8, HTRA3, P83110
[24] = target: Inadl_5, Q8NI35
[25] = target: NHERF4_1, Q86UT5-2
[26] = target: SCRIB_3, Q14160
[27] = target: TJP2_1, Q9UDY2
[28] = target: Inadl_8, Q8NI35
[29] = target: T9, APBA1_1, Q02410

Inadl_8, Q8NI35, sequence (Q8NI35 1425-1530): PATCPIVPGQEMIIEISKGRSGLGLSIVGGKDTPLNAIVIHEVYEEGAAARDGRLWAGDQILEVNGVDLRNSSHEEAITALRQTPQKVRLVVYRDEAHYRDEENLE
DLG1_2, Q12959, sequence (Q12959 314-412): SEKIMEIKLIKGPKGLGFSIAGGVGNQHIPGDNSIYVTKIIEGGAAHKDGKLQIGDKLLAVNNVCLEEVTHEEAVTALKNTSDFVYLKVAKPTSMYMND
AHNAK1, Q09666, sequence (Q09666 4-100): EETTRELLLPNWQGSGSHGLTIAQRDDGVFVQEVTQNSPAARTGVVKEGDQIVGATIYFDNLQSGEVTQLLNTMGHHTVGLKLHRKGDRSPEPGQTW
Inadl_10, Q8NI35, sequence (Q8NI35 1673-1763): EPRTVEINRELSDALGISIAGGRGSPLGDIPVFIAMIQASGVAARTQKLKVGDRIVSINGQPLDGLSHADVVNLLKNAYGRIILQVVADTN
Inadl_5, Q8NI35, sequence (Q8NI35 673-780): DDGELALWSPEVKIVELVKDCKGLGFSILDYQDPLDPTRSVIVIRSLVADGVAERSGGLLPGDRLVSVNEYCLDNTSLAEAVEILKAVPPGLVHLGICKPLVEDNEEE
NHERF4_1, Q86UT5-2, sequence (Q86UT5 other isoform, or with tags, fused parts or gaps): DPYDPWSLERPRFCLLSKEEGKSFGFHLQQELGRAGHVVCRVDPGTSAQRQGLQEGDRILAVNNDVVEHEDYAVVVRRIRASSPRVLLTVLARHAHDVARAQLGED
SCRIB_1, Q14160, sequence (Q14160 718-814): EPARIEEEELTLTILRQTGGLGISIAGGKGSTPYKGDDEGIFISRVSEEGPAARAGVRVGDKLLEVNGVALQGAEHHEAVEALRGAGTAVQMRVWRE
PTPN3, P26045, sequence (P26045 505-587): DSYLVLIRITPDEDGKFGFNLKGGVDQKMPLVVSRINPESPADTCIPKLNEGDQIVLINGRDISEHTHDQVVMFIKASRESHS
TJP1_3, Q07157, sequence (Q07157 416-512): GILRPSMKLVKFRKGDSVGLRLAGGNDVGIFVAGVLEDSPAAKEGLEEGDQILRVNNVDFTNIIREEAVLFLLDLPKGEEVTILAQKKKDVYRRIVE
NOS1, P29475, sequence (P29475 9-101): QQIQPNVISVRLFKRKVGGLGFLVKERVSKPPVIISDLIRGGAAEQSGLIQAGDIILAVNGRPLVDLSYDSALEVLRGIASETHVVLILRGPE
DLG1_3, Q12959, sequence (Q12959 457-571): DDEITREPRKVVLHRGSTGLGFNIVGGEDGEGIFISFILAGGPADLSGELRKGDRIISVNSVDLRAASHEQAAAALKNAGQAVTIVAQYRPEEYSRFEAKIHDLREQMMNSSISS
PDLIM1, O00151, sequence (O00151 1-87): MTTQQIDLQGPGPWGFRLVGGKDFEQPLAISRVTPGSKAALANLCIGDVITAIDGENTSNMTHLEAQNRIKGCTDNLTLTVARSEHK
FRMPD3, Q5JV73, sequence (Q5JV73 12-100): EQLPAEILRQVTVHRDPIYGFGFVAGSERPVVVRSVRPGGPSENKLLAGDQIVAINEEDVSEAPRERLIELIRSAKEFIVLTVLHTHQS
SCRIB_3, Q14160, sequence (Q14160 999-1103): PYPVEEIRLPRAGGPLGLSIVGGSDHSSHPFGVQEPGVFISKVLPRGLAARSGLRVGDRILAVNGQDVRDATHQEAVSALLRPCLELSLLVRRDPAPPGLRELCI
GRIP2_3, Q9C0E4, sequence (Q9C0E4 238-339): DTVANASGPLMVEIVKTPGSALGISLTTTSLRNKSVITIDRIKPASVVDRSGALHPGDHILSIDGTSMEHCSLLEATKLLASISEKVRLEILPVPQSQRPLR
TJP2_1, Q9UDY2, sequence (Q9UDY2 24-128): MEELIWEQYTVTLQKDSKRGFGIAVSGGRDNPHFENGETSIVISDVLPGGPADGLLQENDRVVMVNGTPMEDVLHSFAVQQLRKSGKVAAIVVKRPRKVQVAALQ
PDZRN4_1, Q6ZMN7, sequence (Q6ZMN7 213-318): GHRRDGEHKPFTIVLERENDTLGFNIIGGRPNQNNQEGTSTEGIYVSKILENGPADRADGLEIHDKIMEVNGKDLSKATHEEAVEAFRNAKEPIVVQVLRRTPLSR
Inadl_9, Q8NI35, sequence (Q8NI35 1530-1615): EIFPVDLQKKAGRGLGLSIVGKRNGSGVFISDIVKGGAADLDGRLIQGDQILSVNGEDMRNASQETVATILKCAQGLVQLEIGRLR
Inadl_4, Q8NI35, sequence (Q8NI35 547-651): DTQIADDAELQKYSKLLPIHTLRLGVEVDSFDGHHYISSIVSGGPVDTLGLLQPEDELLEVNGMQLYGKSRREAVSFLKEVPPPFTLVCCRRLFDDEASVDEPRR

Binder	pKd [1]	pKd [2]	pKd [3]	pKd [4]	pKd [5]	pKd [6]	pKd [7]	pKd [8]	pKd [9]	pKd [10]	pKd [11]	pKd [12]	pKd [13]	pKd [14]	pKd [15]	pKd [16]	pKd [17]	pKd [18]	pKd [19]	pKd [20]	also measured
EDLEDEWEVI [TECPR2, O15040]	below the threshold	below the threshold	below the threshold	4.18	below the threshold	below the threshold	below the threshold	below the threshold	below the threshold	below the threshold	below the threshold	below the threshold	below the threshold	below the threshold	below the threshold	below the threshold	below the threshold	below the threshold	below the threshold	below the threshold	pKd [21]: below the threshold; pKd [22]: below the threshold; pKd [23]: 4.12; pKd [24]: below the threshold; pKd [25]: below the threshold; pKd [26]: 3.84; pKd [27]: below the threshold; pKd [28]: below the threshold; pKd [29]: below the threshold
QLSFNTDTLC [ABCA2, Q9BZC7]	below the threshold	below the threshold	below the threshold	3.78	below the threshold	below the threshold	below the threshold	below the threshold	below the threshold	below the threshold	below the threshold	3.88	below the threshold	below the threshold	below the threshold	below the threshold	below the threshold	3.65	below the threshold	below the threshold	pKd [21]: below the threshold; pKd [22]: 4.09; pKd [23]: 4.26; pKd [24]: below the threshold; pKd [25]: 4.18; pKd [26]: below the threshold; pKd [27]: below the threshold; pKd [28]: below the threshold; pKd [29]: below the threshold
